Key:
[1] = biological target: Vibrio harveyi chitoporin (VhChiP), recombinant, mature trimer (Vibrio harveyi type strain 650); test: SDS-PAGE of samples unheated or heated at up to 60°C; purified VhChiP (peak P2 of the ion exchange) unheated or heat-treated for 10 min, run on a 10% polyacrylamide gel; trimer to monomers
[2] = biological target: Vibrio harveyi chitoporin (VhChiP), recombinant, mature trimer (Vibrio harveyi type strain 650); test: single-channel current recording in a planar lipid bilayer (BLM); purified VhChiP added to the cis side of a DPhPC bilayer, 1 M KCl, 20 mM HEPES pH 7.5; closure induced by higher voltage (+200 mV)

Question: Which stoichiometry N [1] does the source give for “Vibrio harveyi chitoporin (VhChiP), recombinant, mature trimer (natural protein)” here?
Answer: 3

Question: What about the stoichiometry N [2] of the same substance?
Answer: 3

— PMC3558487
